What all share (test): co-IP, anti-FLAG, lysate of cells with N-FLAG B3GNT2; mass spectrometry
The target in one assay is T1, MYH11 (human, UniProt P35749-3 1-1945, limits assumed).
T1 construct: also called NP_001035202.1 (+4)
The protocol: (§1) Cells were plated in 10-cm cell culture dishes and grown to 60-80% confluency. For each condition, two biological replicates were harvested for co-IP. Cells were washed with PBS and 4 mL of lysis buffer (20 mM HEPES, 1% Triton X-100, 150 mM NaCl, 1 mM EDTA, and 10% glycerol) containing protease inhibitor cocktail was added. Cells were scraped and lysate was incubated at 4° C. under rotary agitation for 1 h. Lysate was centrifuged at 14,000×g for 10 min at 4° C. Supernatant was transferred to a new tube and an aliquot was taken as the input. […] For Western blots, 10 μg/mL Chicken Anti-FLAG (Aves labs ET-DY100) and IgY control (R&D Systems AB-101-C) antibodies were biotinylated (Thermo Fisher Scientific 90407) and added to the respective conditions. Lysates with antibodies were incubated at 4° C. under rotary agitation overnight. For each mL of lysate, 50 μL of Pierce Protein A/G Magnetic Beads (Mass spectrometry; Thermo Fisher Scientific 88803) or Pierce Streptavidin Magnetic Beads (Western blot; Thermo Fisher Scientific 88817) was washed twice with lysis buffer. Lysates with antibodies were added to the beads and incubated at 4° C. under rotary agitation for 4 h. Beads were washed with lysis buffer 3 times and resuspended in lysis buffer for storage.
(§2) Magnetic beads were resuspended in 100 mM Tris pH 7.8, reduced, alkylated and digested with trypsin at 37° ° C. overnight. This solution was subjected to solid phase extraction to concentrate the peptides and remove unwanted reagents followed by injection onto a Shimadzu HPLC with fraction collector. Eight fractions were collected and after concentration were injected on a Waters NanoAcquity HPLC equipped with a self-packed Aeris 3 μm C18 analytical column 0.075 mm by 20 cm, (Phenomenex). Peptides were eluted using standard reverse-phase gradients. The effluent from the column was analyzed using a Thermo Orbitrap Elite mass spectrometer (nanospray configuration) operated in a data dependent manner for 54 minutes. The resulting fragmentation spectra were correlated against the known database using Proteome Discover 1.4 (Thermo Fisher Scientific).

The target in another assay is T2, ATXN2 (human, UniProt Q99700 1-1313).
T2 construct: also called NP_002964.3
The protocol:
as §1, §2

For a further assay, the target named is T3, CSE1L (human, UniProt P55060-4 1-915, limits assumed).
T3 construct: also called NP_001243064.1 (+2)
T3 sequence (looked up): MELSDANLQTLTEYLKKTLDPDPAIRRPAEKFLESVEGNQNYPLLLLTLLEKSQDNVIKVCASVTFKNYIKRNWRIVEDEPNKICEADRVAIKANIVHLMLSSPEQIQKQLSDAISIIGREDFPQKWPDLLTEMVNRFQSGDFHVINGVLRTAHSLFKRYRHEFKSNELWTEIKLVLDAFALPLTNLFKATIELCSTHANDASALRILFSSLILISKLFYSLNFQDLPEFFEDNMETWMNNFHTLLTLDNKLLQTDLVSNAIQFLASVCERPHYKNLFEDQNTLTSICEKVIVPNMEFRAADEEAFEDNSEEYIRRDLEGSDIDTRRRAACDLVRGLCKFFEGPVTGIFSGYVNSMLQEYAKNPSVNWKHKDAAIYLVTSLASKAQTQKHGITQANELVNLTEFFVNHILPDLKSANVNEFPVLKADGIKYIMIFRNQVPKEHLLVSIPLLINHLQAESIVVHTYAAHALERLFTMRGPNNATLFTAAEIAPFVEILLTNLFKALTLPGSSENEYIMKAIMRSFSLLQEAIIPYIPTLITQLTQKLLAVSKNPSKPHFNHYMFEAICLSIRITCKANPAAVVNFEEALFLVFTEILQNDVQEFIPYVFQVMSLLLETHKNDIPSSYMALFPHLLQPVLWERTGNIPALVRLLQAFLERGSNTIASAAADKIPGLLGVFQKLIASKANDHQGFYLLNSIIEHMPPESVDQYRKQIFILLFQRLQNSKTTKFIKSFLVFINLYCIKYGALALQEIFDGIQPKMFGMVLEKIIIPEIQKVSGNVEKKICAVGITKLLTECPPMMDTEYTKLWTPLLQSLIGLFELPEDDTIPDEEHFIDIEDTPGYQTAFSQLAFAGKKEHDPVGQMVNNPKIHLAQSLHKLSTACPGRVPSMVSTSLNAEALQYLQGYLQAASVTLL
The protocol:
as §1, §2

A further assay has as its target T4, DNAJC3 (human, UniProt Q13217 32-504).
T4 construct: also called NP_006251.1 (+4)
T4 sequence (looked up): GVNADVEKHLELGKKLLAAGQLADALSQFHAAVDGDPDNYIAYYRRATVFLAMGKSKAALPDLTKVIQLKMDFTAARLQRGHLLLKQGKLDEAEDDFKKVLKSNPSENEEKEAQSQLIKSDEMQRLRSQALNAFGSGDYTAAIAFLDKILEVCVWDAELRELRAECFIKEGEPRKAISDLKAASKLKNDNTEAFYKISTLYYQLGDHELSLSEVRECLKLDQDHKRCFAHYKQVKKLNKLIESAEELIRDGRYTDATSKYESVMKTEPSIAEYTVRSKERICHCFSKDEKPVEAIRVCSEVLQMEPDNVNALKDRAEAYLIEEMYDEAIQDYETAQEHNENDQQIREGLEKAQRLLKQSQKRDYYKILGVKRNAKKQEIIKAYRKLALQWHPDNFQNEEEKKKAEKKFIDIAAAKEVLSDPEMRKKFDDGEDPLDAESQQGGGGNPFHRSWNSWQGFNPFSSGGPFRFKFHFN
The protocol:
as §1, §2

A further assay addresses T5, SPTAN1 (human, UniProt Q13813-2 1-2477, limits assumed).
T5 construct: also called NP_001123910.1 (+10)
The protocol:
as §1, §2

The results in this text go back to patent US20240261333A1 (published 2024).

T1 sequence (P35749 other isoform, or with tags, fused parts or gaps limits assumed): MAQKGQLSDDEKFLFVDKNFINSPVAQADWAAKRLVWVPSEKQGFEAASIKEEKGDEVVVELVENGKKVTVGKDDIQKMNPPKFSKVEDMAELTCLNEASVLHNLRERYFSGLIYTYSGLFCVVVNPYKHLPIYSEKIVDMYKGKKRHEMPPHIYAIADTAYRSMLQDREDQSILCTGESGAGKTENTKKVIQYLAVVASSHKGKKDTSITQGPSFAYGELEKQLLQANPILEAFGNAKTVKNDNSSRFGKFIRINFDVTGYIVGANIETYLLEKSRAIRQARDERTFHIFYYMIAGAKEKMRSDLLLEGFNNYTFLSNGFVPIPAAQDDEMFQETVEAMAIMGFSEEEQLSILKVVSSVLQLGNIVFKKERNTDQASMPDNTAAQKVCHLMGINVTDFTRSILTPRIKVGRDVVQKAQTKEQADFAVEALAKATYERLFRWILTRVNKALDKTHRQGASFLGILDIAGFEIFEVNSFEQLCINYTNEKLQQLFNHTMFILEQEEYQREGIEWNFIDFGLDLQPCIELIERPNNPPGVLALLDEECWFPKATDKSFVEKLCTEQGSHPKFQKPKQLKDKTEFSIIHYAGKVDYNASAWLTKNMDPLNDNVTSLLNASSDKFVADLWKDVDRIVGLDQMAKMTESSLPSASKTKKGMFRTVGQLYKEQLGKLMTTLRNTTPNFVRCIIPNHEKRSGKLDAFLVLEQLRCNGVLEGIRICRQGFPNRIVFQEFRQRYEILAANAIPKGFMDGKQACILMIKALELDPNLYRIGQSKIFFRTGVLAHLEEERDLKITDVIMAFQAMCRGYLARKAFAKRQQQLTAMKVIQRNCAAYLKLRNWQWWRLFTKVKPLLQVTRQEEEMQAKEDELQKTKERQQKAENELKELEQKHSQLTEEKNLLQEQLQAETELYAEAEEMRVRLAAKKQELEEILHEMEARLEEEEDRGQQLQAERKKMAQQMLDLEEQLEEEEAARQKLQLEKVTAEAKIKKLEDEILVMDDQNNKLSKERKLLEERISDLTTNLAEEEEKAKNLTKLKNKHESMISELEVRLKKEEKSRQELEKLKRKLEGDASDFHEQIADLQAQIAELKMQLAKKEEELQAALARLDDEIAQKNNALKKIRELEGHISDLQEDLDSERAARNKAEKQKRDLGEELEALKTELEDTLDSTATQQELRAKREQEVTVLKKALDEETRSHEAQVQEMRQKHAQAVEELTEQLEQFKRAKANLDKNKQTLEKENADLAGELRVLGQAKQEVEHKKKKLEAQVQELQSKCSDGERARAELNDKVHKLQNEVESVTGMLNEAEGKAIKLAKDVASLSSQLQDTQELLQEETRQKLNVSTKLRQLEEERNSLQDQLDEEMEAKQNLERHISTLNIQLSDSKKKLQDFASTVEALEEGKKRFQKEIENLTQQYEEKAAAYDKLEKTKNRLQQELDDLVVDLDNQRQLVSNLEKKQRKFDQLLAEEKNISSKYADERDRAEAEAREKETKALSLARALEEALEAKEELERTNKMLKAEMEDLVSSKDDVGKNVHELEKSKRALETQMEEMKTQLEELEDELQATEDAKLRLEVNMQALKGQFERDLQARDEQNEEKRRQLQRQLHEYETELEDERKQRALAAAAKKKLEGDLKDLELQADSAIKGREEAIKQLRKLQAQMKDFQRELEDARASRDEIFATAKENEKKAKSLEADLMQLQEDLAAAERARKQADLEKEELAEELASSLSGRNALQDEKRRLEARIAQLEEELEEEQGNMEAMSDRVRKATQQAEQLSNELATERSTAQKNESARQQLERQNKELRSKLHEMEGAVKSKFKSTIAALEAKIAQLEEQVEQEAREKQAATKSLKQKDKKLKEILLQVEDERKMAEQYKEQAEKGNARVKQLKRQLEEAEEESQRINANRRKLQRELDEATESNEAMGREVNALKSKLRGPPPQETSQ
T2 sequence (Q99700 whole entry): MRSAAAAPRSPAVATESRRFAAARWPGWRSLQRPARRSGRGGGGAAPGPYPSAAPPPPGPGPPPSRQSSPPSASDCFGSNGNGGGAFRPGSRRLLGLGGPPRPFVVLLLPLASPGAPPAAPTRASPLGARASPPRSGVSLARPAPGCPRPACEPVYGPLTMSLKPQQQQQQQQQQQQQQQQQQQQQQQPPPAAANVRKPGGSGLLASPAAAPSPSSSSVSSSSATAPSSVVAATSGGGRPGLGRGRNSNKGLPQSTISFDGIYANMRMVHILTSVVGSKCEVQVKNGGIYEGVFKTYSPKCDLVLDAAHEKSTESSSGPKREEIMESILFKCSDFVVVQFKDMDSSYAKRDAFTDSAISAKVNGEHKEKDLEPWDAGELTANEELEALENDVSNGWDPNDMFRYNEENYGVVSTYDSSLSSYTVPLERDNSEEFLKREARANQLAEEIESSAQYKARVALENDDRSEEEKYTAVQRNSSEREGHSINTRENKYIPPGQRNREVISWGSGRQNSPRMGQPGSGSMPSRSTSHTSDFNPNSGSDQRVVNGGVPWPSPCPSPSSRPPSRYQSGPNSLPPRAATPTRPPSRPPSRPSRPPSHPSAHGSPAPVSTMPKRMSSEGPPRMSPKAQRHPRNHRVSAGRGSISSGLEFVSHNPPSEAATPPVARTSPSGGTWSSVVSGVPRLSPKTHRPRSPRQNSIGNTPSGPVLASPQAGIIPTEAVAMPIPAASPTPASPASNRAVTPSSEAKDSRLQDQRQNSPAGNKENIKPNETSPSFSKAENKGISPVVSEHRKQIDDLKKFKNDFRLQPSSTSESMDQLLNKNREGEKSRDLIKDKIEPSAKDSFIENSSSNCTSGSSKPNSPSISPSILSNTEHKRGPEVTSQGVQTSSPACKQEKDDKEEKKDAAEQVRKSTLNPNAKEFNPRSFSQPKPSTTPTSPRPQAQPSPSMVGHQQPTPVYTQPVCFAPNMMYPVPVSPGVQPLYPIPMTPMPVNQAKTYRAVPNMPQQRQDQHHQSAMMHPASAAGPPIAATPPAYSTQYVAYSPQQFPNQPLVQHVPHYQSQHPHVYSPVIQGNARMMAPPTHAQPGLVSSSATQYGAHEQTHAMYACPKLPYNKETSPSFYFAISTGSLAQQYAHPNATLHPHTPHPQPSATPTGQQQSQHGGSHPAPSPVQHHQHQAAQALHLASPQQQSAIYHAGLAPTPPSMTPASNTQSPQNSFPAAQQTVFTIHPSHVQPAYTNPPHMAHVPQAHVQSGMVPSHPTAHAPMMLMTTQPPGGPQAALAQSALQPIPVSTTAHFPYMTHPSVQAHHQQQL

B1: N-terminal FLAG tagged B3GNT2 (enzyme, human, UniProt Q9NY97 1-397, looked up)
chain: MSVGRRRIKLLGILMMANVFIYFIMEVSKSSSQEKNGKGEVIIPKEKFWKISTPPEAYWNREQEKLNRQYNPILSMLTNQTGEAGRLSNISHLNYCEPDLRVTSVVTGFNNLPDRFKDFLLYLRCRNYSLLIDQPDKCAKKPFLLLAIKSLTPHFARRQAIRESWGQESNAGNQTVVRVFLLGQTPPEDNHPDLSDMLKFESEKHQDILMWNYRDTFFNLSLKEVLFLRWVSTSCPDTEFVFKGDDDVFVNTHHILNYLNSLSKTKAKDLFIGDVIHNAGPHRDKKLKYYIPEVVYSGLYPPYAGGGGFLYSGHLALRLYHITDQVHLYPIDDVYTGMCLQKLGLVPEKHKGFRTFDIEEKNKNNICSYVDLMLVHSRKPQEMIDIWSQLQSAHLKC
notes: Overexpressed in cells and pulled down from the lysate with mouse anti-FLAG antibody; also called N-FLAG B3GNT2; N-term FLAG; not shown: N-terminal FLAG tag
For the molecule B1, the “co-IP mass spectrometry count” value amounted to 2 in the assay with MYH11; 4 with ATXN2; 0 with CSE1L; 0 with DNAJC3; 0 with SPTAN1.
